Experimental findings from US20260232827A1, “ANTIBODY-DRUG CONJUGATES TARGETING NAPI2B AND METHODS OF USE” (Zymeworks BC Inc., priority 2023, published 2026) are described below.

Residue numbers refer to the chain shown, from its start.

The chains are these.
B1: v29453: "Representative humanized antibody variants ... of the mouse antibody" that specifically binds hNaPi2b (antibody, V domains shown)
VH: QVQLVQSGAEVKKPGASVKMSCKASGFTFTSYNVHWVRQAPGQGLEWIAAISPGNGDLSYAQKFQGRATLTVDRSTSTAYMELSSLRSEDTAVYYCARGRTGMGAVDYWGQGTLVTVSS
VL: DVQMTQSPSSLSASVGDRVTITCRASQDVYSYLNWYQQKPGKAVKLLIYYTSRLQSGVPSRFSGSGSGTDYTLTISSLQPEDFATYYCQQYNIFPWTFGQGTKLEIK
modifications: v29449, v29453, v29457 H4; v29453, v29454, v29455, v29456 L2
B2: v29454: "Representative humanized antibody variants ... of the mouse antibody" that specifically binds hNaPi2b (antibody, V domains shown)
VH: B1 VH with R74T
VL: B1 VL
modifications: v29450, v29454, v29458 H3; v29453, v29454, v29455, v29456 L2
B3: v29457: "Representative humanized antibody variants ... of the mouse antibody" that specifically binds hNaPi2b (antibody, V domains shown)
VH: B1 VH
VL: B1 VL with V2I, V44P, Y71F
modifications: v29449, v29453, v29457 H4; v29457, v29458, v29459, v29460 L1
B4: v29460: "Representative humanized antibody variants ... of the mouse antibody" that specifically binds hNaPi2b (antibody, V domains shown)
VH: B1 VH with M20V, I48M, A49G, A68V, L70M, V72R, R74T, A79V
VL: B1 VL with V2I, V44P, Y71F
modifications: v29452, v29460 H1; v29457, v29458, v29459, v29460 L1
B5: v29449: "Representative humanized antibody variants ... of the mouse antibody" that specifically binds hNaPi2b (antibody, V domains shown)
VH: B1 VH
VL: B1 VL with F83I
modifications: v29449, v29453, v29457 H4; v29449 L3
B6: v29459: "Representative humanized antibody variants ... of the mouse antibody" that specifically binds hNaPi2b (antibody, V domains shown)
VH: B1 VH with M20V, A68V, L70M, R74T, A79V
VL: B1 VL with V2I, V44P, Y71F
modifications: v29451, v29455, v29459 H2; v29457, v29458, v29459, v29460 L1
B7: v29458: "Representative humanized antibody variants ... of the mouse antibody" that specifically binds hNaPi2b (antibody, V domains shown)
VH: B1 VH with R74T
VL: B1 VL with V2I, V44P, Y71F
modifications: v29450, v29454, v29458 H3; v29457, v29458, v29459, v29460 L1
B8: v29455: "Representative humanized antibody variants ... of the mouse antibody" that specifically binds hNaPi2b (antibody, V domains shown)
VH: B1 VH with M20V, A68V, L70M, R74T, A79V
VL: B1 VL
modifications: v29451, v29455, v29459 H2; v29453, v29454, v29455, v29456 L2

The data set can be described thus: Thermal stability by differential scanning calorimetry (DSC). In kind it is physicochemical. The settings on record: 0.4 mg/mL in PBS. How it is done:
The thermal stability of the humanized antibody variants was assessed by differential scanning calorimetry (DSC) as described below.
400 μL of purified samples primarily at concentrations of 0.4 mg/mL in PBS were used for DSC analysis with a VP-Capillary DSC (Malvern Panalytical Inc., Westborough, MA). At the start of each DSC run, 5 buffer blank injections were performed to stabilize the baseline, and a buffer injection was placed before each sample injection for referencing. Each sample was scanned from 20° C. to 100° C. at a 60° C./hr rate, with low feedback, 8 sec filter, 3 min pre-scan thermostat, and 70 psi nitrogen pressure. The resulting thermograms were referenced and analyzed using Origin 7 software (OriginLab Corporation, Northampton, MA) to determine melting temperature (Tm) as an indicator of thermal stability.
Background: DSC measures the heat that a sample takes up or gives off during a temperature scan.
Take B1: the “Fab Tm” value was 78.9 °C.

B2: the “Fab Tm” value came to 79.7 °C.

Consider B3, for which the “Fab Tm” value turned out to be 80.5 °C.

In the case of B4, the “Fab Tm” value turned out to be 80.3 °C.

As to B5, the “Fab Tm” value is 80.0 °C.

B6: the “Fab Tm” value was 83.1 °C.

Consider B7, for which the “Fab Tm” value stood at 81.6 °C.

As for B8, the “Fab Tm” value came out at 81.5 °C.
